# Experimental data from patent US20120190616A1 (IPSEN PHARMA S A S, published 2012).
# Biological target: T1, native IGF-1 receptor of human MCF-7 cells (human, UniProt P08069 31-1367)
# T1 construct: whole, on cells; assayed in membranes prepared from MCF-7 cells
# Experiment: radioligand competition, [125I]IGF-1 on MCF-7 cell membranes
# Protocol: The homogenates were washed twice by centrifugation (39,000 g/10 minutes) and the final pellets were resuspended in 50 mM Tris-HCl containing 2.5 mM MgCl₂ and 0.1% BSA.
# Unlabeled competing test peptides were sometimes included. The final assay volume was 0.25 ml. […] The supernatant was decanted and the radioactive particles trapped in the pellet was counted by gamma spectrometry (Wallac LKB, Gaithersburg, Md., USA).
row,IC50,Binder
1,1.14 nM,"(Pro^27, Lys^28, Asn^59)hIGF-1(1-62)-OH (ligand, synthetic; free acid C-terminus) GPETLCGAELVDALQFVCGDRGFYFNPKTGYGSSSRRAPQTGIVDECCFRSCDLRRLENYCA"
2,2.69 nM,"(Arg^27,65,68, Leu^59)hIGF-1(1-70)-OH (ligand, synthetic; free acid C-terminus; disulfides 6-48, 47-52, 18-61) GPETLCGAELVDALQFVCGDRGFYFNRPTGYGSSSRRAPQTGIVDECCFRSCDLRRLELYCAPLRPARSA"
3,0.88 nM,"(Pro^27, Lys^28, Asn^59)hIGF-1(1-70)-OH (ligand, synthetic; free acid C-terminus; disulfides 6-48, 47-52, 18-61) GPETLCGAELVDALQFVCGDRGFYFNPKTGYGSSSRRAPQTGIVDECCFRSCDLRRLENYCAPLKPAKSA"
4,2.89 nM,"(Leu^59, Arg^65,68)hIGF-1(1-70)-OH (ligand, synthetic; free acid C-terminus; disulfides 6-48, 47-52, 18-61) GPETLCGAELVDALQFVCGDRGFYFNKPTGYGSSSRRAPQTGIVDECCFRSCDLRRLELYCAPLRPARSA"
5,19 nM,"(Asn^59, Thr^63, des-Leu^64, des-Lys^65, Glu^70)hIGF-1(1-70)-OH (ligand, synthetic; Leu64 and Lys65 deleted; free acid C-terminus; disulfides 6-48, 47-52, 18-61) GPETLCGAELVDALQFVCGDRGFYFNKPTGYGSSSRRAPQTGIVDECCFRSCDLRRLENYCATPAKSE"
